In patent publication US20240141072A1 (published 2024) one finds Kd data, which are given here for 30 molecules.

B1: 1D02 anti-DLL3 trispecific protein (other)
chain: EVQLVESGGGLVQPGGSLTLSCVASGSTSSINAMAWYRRAPGKQRELVAGISSNGSKVYADSVKGRFTISRDNAKNSVYLQMNSLRAEDTAVYYCYYFRQVSGSSMRYWGQGTLVTVSS
notes: not shown: linker 1808, anti-albumin sdAb, linker 1808, anti-CD3 fragment, His6 1819
B2: 1F08 anti-DLL3 trispecific protein (other)
chain: EVQLVESGGGLVQPGGSLTLSCVASGSTSSINAMAWYRRAPGKQRELVAGISSDGSKVYKDSVKGRFTISRDNAKNSVYLQMNSLRAEDTAVYYCYYFRNVSGSSMRYWGQGTLVTVSS
notes: as for B1
B3: 1D03 anti-DLL3 trispecific protein (other)
chain: EVQLVESGGGLVQPGGSLTLSCVASGSTSSINAIGWYRRAPGKQRELVAGISSDGSKVLADSVKGRFTISRDNAKNSVYLQMNSLRAEDTAVYYCYYFRIVSGSSMGYWGQGTLVTVSS
notes: as for B1
B4: 1D04 anti-DLL3 trispecific protein (other)
chain: EVQLVESGGGLVQPGGSLTLSCVASGSTSSKNAMGWYRRAPGKQRELVAGISSDGSKVYADSVKGRFTISRDNAKNSVYLQMNSLRAEDTAVYYCYYFRTVSGASMRYWGQGTLVTVSS
notes: as for B1
B5: 1E08 anti-DLL3 trispecific protein (other)
chain: EVQLVESGGGLVQPGGSLTLSCVASGKTSSINAMGWYRRAPGKQRELVAGISSDGSKVIADSVKGRFTISRDNAKNSVYLQMNSLRAEDTAVYYCYYFRTVLGSSMRYWGQGTLVTVSS
notes: as for B1
B6: 1E011 anti-DLL3 trispecific protein (other)
chain: EVQLVESGGGLVQPGGSLTLSCVASGNTSSINAMGWYRRAPGKQRELVAGISSDGSKVYYDSVKGRFTISRDNAKNSVYLQMNSLRAEDTAVYYCYYFRTVRGSSQRYWGQGTLVTVSS
notes: as for B1
B7: 1E010 anti-DLL3 trispecific protein (other)
chain: EVQLVESGGGLVQPGGSLTLSCVASGSVSSINAMGWYRRAPGKQRELVAGISSDGSKVYIDSVKGRFTISRDNAKNSVYLQMNSLRAEDTAVYYCYYFRTVSGLSMRYWGQGTLVTVSS
notes: as for B1
B8: 1E04 anti-DLL3 trispecific protein (other)
chain: EVQLVESGGGLVQPGGSLTLSCVASGSTSRINGMGWYRRAPGKQRELPAGISSDGSKAYADSVKGRFTISRDNAKNSVYLQMNSLRAEDTAVYYCYYFRTASGTSMRYWGQGTLVTVSS
notes: as for B1
B9: 1F012 anti-DLL3 trispecific protein (other)
chain: EVQLVESGGGLVQPGGSLTLSCVASGLTSSINAMGWYRRAPGKQRELVAGISSDGSKVYQDSVKGRFTISRDNAKNSVYLQMNSLRAEDTAVYYCYYFRTNSGSSMRYWGQGTLVTVSS
notes: as for B1
B10: 1F07 anti-DLL3 trispecific protein (other)
chain: EVQLVESGGGLVQPGGSLTLSCVASGSTSSINAMGWYRRAPGKQRELVAGISSDGSKVDADSVKGRFTISRDNAKNSVYLQMNSLRAEDTAVYYCYYFRTVSGSSMRYWGQGTLVTVSS
notes: as for B1
B11: 1F011 anti-DLL3 trispecific protein (other)
chain: EVQLVESGGGLVQPGGSLTLSCVASGSTSSINAIGWYRRAPGKQRELVAGISSDGSKVYADSVKGRFTISRDNAKNSVYLQMNSLRAEDTAVYYCYYFRTVKGSSMRYWGQGTLVTVSS
notes: as for B1
B12: 1F09 anti-DLL3 trispecific protein (other)
chain: EVQLVESGGGLVQPGGSLTLSCVASGNTSSINAMGWYRRAPGKQRELVAGISSNGSKVYADSVKGRFTISRDNAKNSVYLQMNSLRAEDTAVYYCYYFRTVTGSSMRYWGQGTLVTVSS
notes: as for B1
B13: 1E012 anti-DLL3 trispecific protein (other)
chain: EVQLVESGGGLVQPGGSLTLSCVASGSTSSTNAMGWYRRAPGKQRELVAGISSDGSKVYVDSVKGRFTISRDNAKNSVYLQMNSLRAEDTAVYYCYYFRTVSGSSMVYWGQGTLVTVSS
notes: as for B1
B14: 1G01 anti-DLL3 trispecific protein (other)
chain: EVQLVESGGGLVQPGGSLTLSCVASGSTSSINAMAWYRRAPGKQRELVAGISSDGSKVYAESVKGRFTISRDNAKNSVYLQMNSLRAEDTAVYYCYYFRTVSGASMRYWGQGTLVTVSS
notes: as for B1
B15: 1F02 anti-DLL3 trispecific protein (other)
chain: EVQLVESGGGLVQPGGSLTLSCVASGSTSSINAMAWYRRAPGKQRELAAGISSDQSKVYADSAKGRFTISRDNAKNSVYLQMNSLRAEDTAVYYCYYFRTVSGSSMSYWGQGTLVTVSS
notes: as for B1
B16: 1D010 anti-DLL3 trispecific protein (other)
chain: EVQLVESGGGLVQPGGSLTLSCVASGSTSSNNAMAWYRRAPGKQRELVAGISSDGSKVYTDSVKGRFTISRDNAKNSVYLQMNSLRAEDTAVYYCYYFRTRSGSSMRYWGQGTLVTVSS
notes: as for B1
B17: 1E05 anti-DLL3 trispecific protein (other)
chain: EVQLVESGGGLVQPGGSLTLSCVASGSTSVINAMAWYRRAPGKQRELAAGISSDGSKVYAKSAKGRFTISRDNAKNSVYLQMNSLRAEDTAVYYCYYFNTVSGSSMRYWGQGTLVTVSS
notes: as for B1
B18: 1F01 anti-DLL3 trispecific protein (other)
chain: EVQLVESGGGLVQPGGSLTLSCVASGSTSSINAMGWYRRAPGKQRELVAGISSDGSKVYGDSVKGRFTISRDNAKNSVYLQMNSLRAEDTAVYYCYYFRTVSRSSMRYWGQGTLVTVSS
notes: as for B1
B19: 1E07 anti-DLL3 trispecific protein (other)
chain: EVQLVESGGGLVQPGGSLTLSCVASGSTSSINAMAWYRRAPGKQRELVAGISSDGSKVYNDSVKGRFTISRDNAKNSVYLQMNSLRAEDTAVYYCYYFRTVRGSSQRYWGQGTLVTVSS
notes: as for B1
B20: 1D08 anti-DLL3 trispecific protein (other)
chain: EVQLVESGGGLVQPGGSLTLSCVASGLTSSINAMGWYRRAPGKQRELVAGISSDGSKVYADSVKGRFTISRDNAKNSVYLQMNSLRAEDTAVYYCYYFRMVSGSSMRYWGQGTLVTVSS
notes: as for B1
B21: 1E02 anti-DLL3 trispecific protein (other)
chain: EVQLVESGGGLVQPGGSLTLSCVASGQTSSINAMGWYRRAPGKQRELVAGISSDGSQVYADSVKGRFTISRDNAKNSVYLQMNSLRAEDTAVYYCYYFRTKSGSSMRYWGQGTLVTVSS
notes: as for B1
B22: 1D012 anti-DLL3 trispecific protein (other)
chain: EVQLVESGGGLVQPGGSLTLSCVASGSTSHINAMGWYRRAPGKQRELVAGISSDGSRVYADSVKGRFTISRDNAKNSVYLQMNSLRAEDTAVYYCYYFRTVSGGSMRYWGQGTLVTVSS
notes: as for B1
B23: 1F010 anti-DLL3 trispecific protein (other)
chain: EVQLVESGGGLVQPGGSLTLSCVASGSTSRINAMGWYRRAPGKQRELVAGISSDGSKVYKDSVKGRFTISRDNAKNSVYLQMNSLRAEDTAVYYCYYFRTVSGSSMRYWGQGTLVTVSS
notes: as for B1
B24: 1F04 anti-DLL3 trispecific protein (other)
chain: EVQLVESGGGLVQPGGSLTLSCVASGGTSSINAMGWYRRAPGKQRELVAGISSDGSKVYSDSVKGRFTISRDNAKNSVYLQMNSLRAEDTAVYYCYYFRTVSGSSARYWGQGTLVTVSS
notes: as for B1
B25: 1D09 anti-DLL3 trispecific protein (other)
chain: EVQLVESGGGLVQPGGSLTLSCVASGSTSSINAMAWYRRAPGKQRELVAGISSDGSKVYTDSVKGRFTISRDNAKNSVYLQMNSLRAEDTAVYYCYYFRTISGSSMRYWGQGTLVTVSS
notes: as for B1
B26: 1E09 anti-DLL3 trispecific protein (other)
chain: EVQLVESGGGLVQPGGSLTLSCVASGSTSSINAMAWYRRAPGKQRELVAGISSDGSKVYTDSVKGRFTISRDNAKNSVYLQMNSLRAEDTAVYYCYYFRTRSGSSMRYWGQGTLVTVSS
notes: as for B1
B27: 1F06 anti-DLL3 trispecific protein (other)
chain: EVQLVESGGGLVQPGGSLTLSCVASGTTSSINAMGWYRRAPGKQRELVAGISSDGSKVIADSVKGRFTISRDNAKNSVYLQMNSLRAEDTAVYYCYYFRTVLGSSMRYWGQGTLVTVSS
notes: as for B1
B28: 1F05 anti-DLL3 trispecific protein (other)
chain: EVQLVESGGGLVQPGGSLTLSCVASGSTRSINAMGWYRRAPGKQRELVAGISSDGSKVYADSVKGRFTISRDNAKNSVYLQMNSLRAEDTAVYYCYYFHTVSGSSMRYWGQGTLVTVSS
notes: as for B1
B29: 1D011 anti-DLL3 trispecific protein (other)
chain: EVQLVESGGGLVQPGGSLTLSCVASGSTSSINAMAWYRRAPGKQRELVAGISSDNSKVYADSVKGRFTISRDNAKNSVYLQMNSLRAEDTAVYYCYYFRTVSGHSMRYWGQGTLVTVSS
notes: as for B1
B30: 1D06 anti-DLL3 trispecific protein (other)
chain: EVQLVESGGGLVQPGGSLTLSCVASGSTSSINAMGWYRRAPGKQRELVAGISSDNSKVYADSVKGRFTISRDNAKNSVYLQMNSLRAEDTAVYYCYYFRTVHGSSMRYWGQGTLVTVSS
notes: as for B1

The Kd is the concentration at which binding is half-saturated.

The test deals with T1, biotinylated human DLL3 protein expressed as a human IgG1 fusion protein (human, UniProt Q9NYJ7 27-492, limits assumed, biotinylated).
T1 sequence: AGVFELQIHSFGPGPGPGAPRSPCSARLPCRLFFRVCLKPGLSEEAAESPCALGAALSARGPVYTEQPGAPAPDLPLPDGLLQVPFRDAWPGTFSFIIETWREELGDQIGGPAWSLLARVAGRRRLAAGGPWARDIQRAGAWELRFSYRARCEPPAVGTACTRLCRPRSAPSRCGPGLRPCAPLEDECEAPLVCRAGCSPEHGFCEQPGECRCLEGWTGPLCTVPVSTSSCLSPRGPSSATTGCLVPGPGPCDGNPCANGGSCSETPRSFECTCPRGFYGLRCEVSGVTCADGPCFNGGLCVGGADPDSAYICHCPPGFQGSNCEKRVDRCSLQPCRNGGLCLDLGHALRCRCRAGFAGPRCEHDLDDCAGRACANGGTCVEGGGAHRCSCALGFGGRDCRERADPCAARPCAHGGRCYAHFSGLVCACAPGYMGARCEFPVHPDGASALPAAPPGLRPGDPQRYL
The experiment in a line: Octet BLI, single 50 nM. The procedure: Using the conditioned medium with known concentrations of the anti-DLL3 trispecific proteins, the binding affinities of the anti-DLL3 trispecific proteins toward human DLL3 protein were measured using a method where biotinylated version of human DLL3 protein were expressed as a human IgG1 fusion protein, and the binding affinity measurement was carried out in an Octet instrument with streptavidin tips.
Consider B1, for which binding was put at a Kd of 14 nM.

In the case of B2, the Kd is 31 nM.

Molecule B3 registered an equilibrium dissociation constant (Kd) of 5.8 nM.

As for B4, the Kd amounted to 9.7 nM.

Take B5: binding was put at a Kd of 9.4 nM.

Regarding B6, the equilibrium dissociation constant (Kd) came out at 2.7 nM.

The molecule B7 returned a Kd of 5.7 nM.

For B8, binding was put at a Kd of 8.1 nM.

B9 registered a dissociation constant (Kd) of 5.8 nM.

In turn, B10 showed a dissociation constant Kd of 13 nM.

The molecule B11 returned a Kd of 5 nM.

B12 came in with an equilibrium dissociation constant (Kd) of 35 nM.

Turning to B13, binding was characterised by a dissociation constant (Kd) of 5.3 nM.

Turning to B14, the Kd was determined as 6.6 nM.

For the molecule B15, the Kd is 4 nM.

B16: the Kd turned out to be 5 nM.

Consider B17, for which the Kd came to 14 nM.

The molecule B18 yielded a dissociation constant Kd of 9.4 nM.

For the molecule B19, the Kd amounted to 7.1 nM.

As to B20, the equilibrium dissociation constant (Kd) stood at 10 nM.

Molecule B21 displayed a Kd of 7 nM.

The molecule B22 had a Kd of 9.3 nM.

B23 returned an equilibrium dissociation constant (Kd) of 6.3 nM.

B24 displayed a Kd of 10 nM.

The molecule B25 gave a Kd of 5.2 nM.

As for B26, the dissociation constant Kd came to 4.4 nM.

As to B27, the Kd was found to be 8.9 nM.

Regarding B28, the Kd is 5.8 nM.

Take B29: the affinity, expressed as Kd, was 4.4 nM.

B30: binding was put at a Kd of 6.8 nM.
